Results on 3 molecules are retold here after patent publication US20240270853A1 (Chugai, published 2024).

Test [1] concerns the target T1, full length mouse DDR2 (stably expressed on Ba/F3 cell line) (mouse, UniProt Q62371 22-854).
T1 construct: also called moDDR2
T1 sequence: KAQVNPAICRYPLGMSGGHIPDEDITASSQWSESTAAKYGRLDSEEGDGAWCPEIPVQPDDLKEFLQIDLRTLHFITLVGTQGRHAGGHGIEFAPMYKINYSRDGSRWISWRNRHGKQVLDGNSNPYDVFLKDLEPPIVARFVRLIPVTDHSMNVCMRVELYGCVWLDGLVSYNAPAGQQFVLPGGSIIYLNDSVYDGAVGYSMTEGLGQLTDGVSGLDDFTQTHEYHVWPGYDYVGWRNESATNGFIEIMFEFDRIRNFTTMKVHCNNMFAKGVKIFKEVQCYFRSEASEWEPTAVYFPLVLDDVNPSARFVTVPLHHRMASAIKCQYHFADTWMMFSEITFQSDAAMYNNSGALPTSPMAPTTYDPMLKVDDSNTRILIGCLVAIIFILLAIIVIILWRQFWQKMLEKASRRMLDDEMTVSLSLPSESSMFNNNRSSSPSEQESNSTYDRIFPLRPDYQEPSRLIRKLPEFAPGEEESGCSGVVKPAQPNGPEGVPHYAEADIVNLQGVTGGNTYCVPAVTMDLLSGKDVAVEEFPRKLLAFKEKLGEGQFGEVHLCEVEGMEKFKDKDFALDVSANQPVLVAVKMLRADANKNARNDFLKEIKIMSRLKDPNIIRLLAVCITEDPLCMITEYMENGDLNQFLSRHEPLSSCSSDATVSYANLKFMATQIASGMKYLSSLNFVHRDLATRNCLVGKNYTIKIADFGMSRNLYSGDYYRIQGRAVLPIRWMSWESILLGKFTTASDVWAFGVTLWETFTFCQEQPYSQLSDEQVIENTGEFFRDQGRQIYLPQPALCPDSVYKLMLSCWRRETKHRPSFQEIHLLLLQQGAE
The experiment in a line: flow cytometry on Ba/F3 cells expressing full length mouse DDR2, one-arm format. Here is the method: Mean Fluorescent Intensity (MFI) of each antibody was measured by flow cytometry using Ba/F3 cell line that stably expresses full length mouse DDR2. Names under the horizontal axis are names of the tested antibodies. IC17dK is an anti-KLH antibody used as a negative control.
To determine antibody binding to mouse DDR2, flow cytometry analysis was carried out by using mouse-DDR2-stably-expressing Ba/F3 cell line. One-arm format antibodies, which contains one antibody variable region in each molecule, were prepared to evaluate the binding by affinity mode.
Background: In flow cytometry, cells or beads pass a laser one at a time.

For test [2], the target named is T2, mouse DDR2 delta DSL-EJXM (stably expressed on Ba/F3 cell line) (mouse, UniProt Q62371 22-854).
T2 construct: Full length mouse DDR2 with Gln201-Val393 deleted; also called mouse DDR2 fragment with DSL domain and EJXM region (Gln201-Val393) deleted
T2 sequence: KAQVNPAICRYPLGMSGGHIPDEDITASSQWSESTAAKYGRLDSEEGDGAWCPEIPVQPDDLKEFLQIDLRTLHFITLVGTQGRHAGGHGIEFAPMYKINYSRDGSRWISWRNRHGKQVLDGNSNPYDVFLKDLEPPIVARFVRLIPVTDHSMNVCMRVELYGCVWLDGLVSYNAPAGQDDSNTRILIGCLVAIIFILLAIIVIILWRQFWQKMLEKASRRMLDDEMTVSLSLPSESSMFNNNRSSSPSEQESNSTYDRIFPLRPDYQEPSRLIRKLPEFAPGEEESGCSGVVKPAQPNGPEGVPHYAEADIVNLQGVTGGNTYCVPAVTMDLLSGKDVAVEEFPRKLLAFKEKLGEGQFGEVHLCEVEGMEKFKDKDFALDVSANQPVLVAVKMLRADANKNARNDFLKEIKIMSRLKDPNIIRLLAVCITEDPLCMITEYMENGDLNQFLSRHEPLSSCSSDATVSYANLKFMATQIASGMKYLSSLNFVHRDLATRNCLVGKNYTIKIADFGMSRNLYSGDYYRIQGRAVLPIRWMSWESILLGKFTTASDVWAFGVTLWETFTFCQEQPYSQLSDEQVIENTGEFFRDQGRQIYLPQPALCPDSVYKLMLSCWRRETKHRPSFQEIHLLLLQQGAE
The test is described as follows: flow cytometry on Ba/F3 cells expressing mouse DDR2 delta DSL-EJXM. Here is the method: Mean Fluorescent Intensity (MFI) of each antibody was measured by flow cytometry using Ba/F3 cell line that stably expresses mouse DDR2 fragment in which Discoidin-like (DSL) domain and extracellular juxtamembrane (EJXM) region were deleted from full length mouse DDR2 (mouse DDR2 delta DSL-EJXM). Names under the horizontal axis are names of the tested antibodies. IC17dK is an anti-KLH antibody used as a negative control.
To map more detailed binding epitope of anti-DDR2 antibodies, fragment of mouse DDR2, in which discoidin-like (DSL) domain and extracellular juxtamembrane (EJXM) region (Gln201-Val393) are deleted from full length mouse DDR2 (mouse DDR2 delta DSL-EJXM) was made. Mouse DDR2 delta DSL-EJXM stably-expressing Ba/F3 cell line was prepared. Binding of the antibodies to this cell line was measured by flow cytometry and MFI value was acquired. Epitope of antibodies which can bind to full length mouse DDR2 but not to mouse DDR2 delta DSL-EJXM would be DSL-EJXM region. Epitope of antibodies which can bind to both full length mouse DDR2 and mouse DDR2 delta DSL-EJXM would be discoidin (DS) domain. In Table2, “Yes” means that tested antibody can bind to the cell line and “No” means that antibody cannot bind to the cell line.

B1: DAB0071 (antibody, V domains shown)
VH: QSLEESGGRLVTPGGSLTLTCTASGFSLSAYYMQWVRQAPGKGLEWIGWINTGGSAYYPSWARGRFTISKTSTTVDLKITSPTTEDTATYFCARSDASVHQFNLWGQGTLVTVSS
VL: DVVMTQTPASVEAAVGGTVTIKCQASESIGNALAWYQQRPGQPPKLLIYYASTLESGVPSRFKGSGSGTEFTLTISDLECADAATYYCQCTYGSGSSRGNAFGGGTKVEIK
notes: Variable regions from immunized rabbits
For the molecule B1, the binding result in test [1] is recorded as “binds”; in test [2], “no binding”.

B2: DAB0052 (antibody, V domains shown)
VH: QSVEESGGRLVTPGTPLTLTCTVSGFSLNRYTGIWVRQAPGKGLEWIGIISSDDRTWYASWAKGRFTISKTSTTVDLKITSPTIEDTATYFCARDVGGDSWFWGLWGQGTLVTVSS
VL: DIVMTQTPASVEAAVGGTVTIKCQASQSISSWLAWYQQKPGQPPKLLIYYASTLASGVPSRFSGSGSGTEFTLTISDLECADAATYYCQSNYYSSSNSNYGHAFGGGTKVEIK
notes: as for B1
Regarding B2, the binding result is reported as “binds” in test [1] and “no binding” in test [2].

B3: DAB0009 (antibody, V domains shown)
VH: QSVEESGGRLVTPGTPLTLTCAVSGFSLNSHVMGWVRQAPGRGLECIGIIAVSGDIYYANWAKGRFTISKTSTTVDLRITSPTTEDTATYFCGSPTVINNNNLWGQGTLVTVSS
VL: AQVLTQTASPVSAAVGGTVTINCQSSQNVYGNNYLSWFQQKPGQPPKLLIYSTSTLASGVSSRFKGSGSGTQFTLTISDLECADAATYYCLGGYDCNIVDCRAFGGGTKVEIK
notes: as for B1
As for B3, the binding result in test [1] is “binds”; in test [2], “no binding”.
